# Assay results: IntAct's records for PubMed 22949657
# Biological target: T1, tp8l2_human TNFAIP8L2 (UniProt Q6P589)
# T1 sequence: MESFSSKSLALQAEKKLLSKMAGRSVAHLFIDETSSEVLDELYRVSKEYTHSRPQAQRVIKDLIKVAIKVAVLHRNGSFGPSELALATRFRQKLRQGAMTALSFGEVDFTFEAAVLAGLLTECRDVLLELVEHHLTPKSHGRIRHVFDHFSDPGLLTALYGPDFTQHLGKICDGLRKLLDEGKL
substance,measurement,value
Ras-related C3 botulinum toxin substrate 1 (Homo sapiens) (from UniProt P63000-1) C189S,effect of a mutation on the interaction,disrupting interaction strength
